Assay results reported in publication doi:10.1101/2024.11.12.623303 (bioRxiv, 2024).

Target: T1, recombinant CD45RO-Fc protein (Catalog # 10642-CD, R&D systems) (UniProt P08575-4 26-416)
T1 sequence (looked up): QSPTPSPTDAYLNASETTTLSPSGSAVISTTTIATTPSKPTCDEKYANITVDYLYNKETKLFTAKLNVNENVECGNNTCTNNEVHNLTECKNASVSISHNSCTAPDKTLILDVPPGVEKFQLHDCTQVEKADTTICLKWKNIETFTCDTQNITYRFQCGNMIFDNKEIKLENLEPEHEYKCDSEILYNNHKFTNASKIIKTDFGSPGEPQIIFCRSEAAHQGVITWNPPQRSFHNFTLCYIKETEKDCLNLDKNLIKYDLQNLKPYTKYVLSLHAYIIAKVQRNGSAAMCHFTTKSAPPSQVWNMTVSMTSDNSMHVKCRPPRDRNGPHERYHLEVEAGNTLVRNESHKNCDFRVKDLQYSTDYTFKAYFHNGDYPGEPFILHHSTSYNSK
Assay: MST

- Kd: 63.5 nM
B1: BTN2A2-His tag protein (without Fc tag) (domain or fragment, human, UniProt Q8WVV5 33-237, looked up)
chain: QFTVVGPANPILAMVGENTTLRCHLSPEKNAEDMEVRWFRSQFSPAVFVYKGGRERTEEQMEEYRGRITFVSKDINRGSVALVIHNVTAQENGIYRCYFQEGRSYDEAILRLVVAGLGSKPLIEIKAQEDGSIWLECISGGWYPEPLTVWRDPYGEVVPALKEVSIADADGLFMVTTAVIIRDKYVRNVSCSVNNTLLGQEKETV
modifications: fluorescently labeled by covalent labeling (Monolith protein labeling kit RED-NHS 2nd generation, amine reactive)
